One may read the Kd as the constant that tells how readily two partners part at equilibrium. Low readings indicate higher affinity, high ones lower affinity.

Experimental findings from doi:10.1101/2021.07.07.451531 (bioRxiv, 2021) are described below.

In one assay the target is biotinylated iC3b. The assay can be described thus: SPR.
Assay [1] has as its target αM subunit of the αMβ2 headpiece (human, UniProt P11215). The assay can be described thus: crystal structure.
The target in assay [2] is recombinant human αI domain of αMβ2 (human, UniProt P11215). The assay can be described thus: SEC. For orientation: In gel filtration, larger molecules generally elute earlier.
Sequence of recombinant human αI domain of αMβ2 (P11215 148-336): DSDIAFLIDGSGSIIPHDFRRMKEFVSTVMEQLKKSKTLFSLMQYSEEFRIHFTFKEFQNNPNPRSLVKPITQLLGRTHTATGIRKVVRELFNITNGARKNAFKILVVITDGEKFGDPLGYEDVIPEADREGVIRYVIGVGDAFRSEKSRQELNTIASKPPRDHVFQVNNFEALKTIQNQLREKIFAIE

Sequence of αM subunit of the αMβ2 headpiece (P11215 17-770): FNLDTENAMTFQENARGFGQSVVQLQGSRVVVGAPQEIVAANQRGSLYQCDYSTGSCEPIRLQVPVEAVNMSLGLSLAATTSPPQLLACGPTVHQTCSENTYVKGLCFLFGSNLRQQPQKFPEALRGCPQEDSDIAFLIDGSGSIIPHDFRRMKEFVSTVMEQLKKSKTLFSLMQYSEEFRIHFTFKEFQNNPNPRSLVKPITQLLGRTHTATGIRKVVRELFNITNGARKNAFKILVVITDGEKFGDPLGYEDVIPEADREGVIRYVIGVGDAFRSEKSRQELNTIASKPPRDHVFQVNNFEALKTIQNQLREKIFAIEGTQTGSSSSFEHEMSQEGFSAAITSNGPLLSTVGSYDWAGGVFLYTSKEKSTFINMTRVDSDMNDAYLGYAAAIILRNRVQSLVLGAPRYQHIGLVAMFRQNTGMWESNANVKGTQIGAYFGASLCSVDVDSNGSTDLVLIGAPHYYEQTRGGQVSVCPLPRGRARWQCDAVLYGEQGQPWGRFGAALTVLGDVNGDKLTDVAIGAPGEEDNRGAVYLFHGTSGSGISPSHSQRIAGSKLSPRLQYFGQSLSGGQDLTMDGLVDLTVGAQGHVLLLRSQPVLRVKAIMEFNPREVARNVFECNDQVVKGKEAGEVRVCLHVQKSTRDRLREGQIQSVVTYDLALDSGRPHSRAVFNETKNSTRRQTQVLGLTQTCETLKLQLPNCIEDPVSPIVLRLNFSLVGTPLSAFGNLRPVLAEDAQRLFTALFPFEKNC

With “αMβ2 headpiece (from UniProt P05107 23-482) (complex)”, the Kd with biotinylated iC3b worked out at 30 nM.

B1: hCD11bNb1 (VHH)
VHH: QVQLVETGGGLVQAGGSLRLSCAASGNINSFNAMGWFRQAPGKQRELVAAITFGGRTNYADSVKGRFTISRDNTKGSVYLQMNSLKPEDTAVYYCAASENNLLTGVWHYWGRGTQVTVSS
On to B1, for which the binding result in assay [1] and in assay [2] was “binds” each time.
